In publication PMC11853100:

Molecular target: Streptococcus pneumoniae pneumolysin, recombinant (Streptococcus pneumoniae strain R6) (UniProt Q04IN8)
Assay: ITC; chaperone in the syringe, Ply in the sample cell; 20 mM MES, 100 mM NaCl, 1 mM beta-mercaptoethanol, 10% glycerol, pH 6.5, 25 C; independent binding model

**Q.** “Streptococcus pneumoniae SlrA (from UniProt Q8DQG5 19-267) (enzyme)” was tested. Which dH did it give?
**A.** -35.6 kcal/mol

**Q.** And the stoichiometry N?
**A.** 0.84
